# Measurements published in patent US20160046725A1 (PIERRE FABRE MEDICAMENT, published 2016).
# Residue numbers refer to the chain shown, from its start.
# T1: human Axl receptor on human tumor cells (human, UniProt P30530 26-894)
# T1 sequence: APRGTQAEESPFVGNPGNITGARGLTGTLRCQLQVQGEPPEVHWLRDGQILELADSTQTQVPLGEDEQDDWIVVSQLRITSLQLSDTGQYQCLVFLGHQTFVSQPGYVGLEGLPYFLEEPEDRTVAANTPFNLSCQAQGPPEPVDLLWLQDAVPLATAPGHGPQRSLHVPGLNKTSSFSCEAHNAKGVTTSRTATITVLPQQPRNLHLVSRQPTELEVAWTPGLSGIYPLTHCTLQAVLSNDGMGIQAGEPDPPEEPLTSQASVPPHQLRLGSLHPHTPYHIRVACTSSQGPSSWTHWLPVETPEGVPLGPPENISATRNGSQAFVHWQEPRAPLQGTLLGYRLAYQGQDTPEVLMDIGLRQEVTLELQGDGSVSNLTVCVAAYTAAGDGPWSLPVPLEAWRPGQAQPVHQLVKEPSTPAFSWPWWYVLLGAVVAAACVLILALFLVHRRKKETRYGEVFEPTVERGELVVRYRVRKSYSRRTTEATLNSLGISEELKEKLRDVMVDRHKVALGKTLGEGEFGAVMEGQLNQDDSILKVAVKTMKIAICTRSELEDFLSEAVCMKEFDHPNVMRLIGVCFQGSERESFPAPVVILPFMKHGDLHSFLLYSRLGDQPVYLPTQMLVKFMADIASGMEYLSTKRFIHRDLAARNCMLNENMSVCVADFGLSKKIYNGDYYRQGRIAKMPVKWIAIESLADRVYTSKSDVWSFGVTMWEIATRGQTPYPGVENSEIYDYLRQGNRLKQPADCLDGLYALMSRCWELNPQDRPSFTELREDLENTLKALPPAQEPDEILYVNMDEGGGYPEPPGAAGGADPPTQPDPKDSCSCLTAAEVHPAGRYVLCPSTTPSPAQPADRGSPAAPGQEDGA
# T2: recombinant human Mer-Fc protein (R and D Systems, cat N° 891-MR) (human, UniProt Q12866 26-499, limits assumed)
# T2 construct: Bought construct; also called rhMer-Fc; rh-Mer-Fc; not shown: Fc portion of the bought fusion
# T2 sequence (looked up): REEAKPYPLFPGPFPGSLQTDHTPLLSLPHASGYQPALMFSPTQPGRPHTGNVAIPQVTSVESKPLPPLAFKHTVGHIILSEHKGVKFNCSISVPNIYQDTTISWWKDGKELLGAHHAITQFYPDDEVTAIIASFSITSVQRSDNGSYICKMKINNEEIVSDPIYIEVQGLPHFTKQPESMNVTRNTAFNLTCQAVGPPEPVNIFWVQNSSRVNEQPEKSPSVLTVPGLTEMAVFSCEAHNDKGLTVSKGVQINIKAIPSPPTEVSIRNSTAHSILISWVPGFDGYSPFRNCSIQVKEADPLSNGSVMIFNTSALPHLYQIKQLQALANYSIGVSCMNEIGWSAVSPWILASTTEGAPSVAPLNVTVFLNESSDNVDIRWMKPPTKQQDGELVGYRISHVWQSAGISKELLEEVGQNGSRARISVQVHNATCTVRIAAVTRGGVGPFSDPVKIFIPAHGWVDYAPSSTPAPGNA
# T3: recombinant human Dtk-Fc protein (R and D Systems, cat N° 859-DK) (human, UniProt Q06418 41-428)
# T3 construct: Bought construct; also called rhDtk-Fc; rhDtk; not shown: Fc portion of the bought fusion
# T3 sequence (looked up): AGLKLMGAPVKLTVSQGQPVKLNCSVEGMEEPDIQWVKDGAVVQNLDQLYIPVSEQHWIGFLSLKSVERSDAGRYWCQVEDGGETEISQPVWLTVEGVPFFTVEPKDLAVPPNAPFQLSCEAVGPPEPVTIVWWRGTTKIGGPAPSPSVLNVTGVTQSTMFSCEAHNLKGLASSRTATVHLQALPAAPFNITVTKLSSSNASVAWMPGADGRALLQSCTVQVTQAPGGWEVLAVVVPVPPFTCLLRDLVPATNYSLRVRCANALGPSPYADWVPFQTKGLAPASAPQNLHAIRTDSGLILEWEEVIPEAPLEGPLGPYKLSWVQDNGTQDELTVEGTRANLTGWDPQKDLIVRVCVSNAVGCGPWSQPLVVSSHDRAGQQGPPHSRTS
# B1: 110D7 anti-Axl monoclonal antibody (antibody, V domains shown)
# VH: EVKLVESGGGLVQPGGSLKLSCATSGFTFSDYYMYWVRQTPEKRLEWVAYISNGGGSTYYPDTVKGRFTMSRDNAKNTLYLQMSRLKSEDTAMYYCARLSFYAMDYWGQGTSVTVSS
# VL: DIVMTQSHKFMSTSVGDRVSITCKASQDVTTAVAWYQQKPGQSPKLLIYWASTRHTGVPDRFTGSGSGTDYTLTISSVQAEDLALYYCQQHYRIPFTFGSGTKLEIK
# notes: Murine monoclonal antibody purified from a hybridoma; a mIgG1 isotype control (9G4) is used beside it; also called m110D7; monoclonal antibody 110D7 derived from the hybridoma I-3959
# B2: 1003A2 anti-Axl monoclonal antibody (antibody, V domains shown)
# VH: EVKLVESGGGLVQPGGSLKLSCAASGFTFNSYSMSWVRQTPEKRLEWVAYISNGGGRTYYPDTIKGRFTLSRDNDRNTLYLQMSSLKSEDTAMYYCARGTTESYYALDYWGQGTSVTVSS
# VL: B1 VL with V15L, V19I, T30I, T72N, Y92F, R93S, I94T, F96L, S100A, I106L
# notes: Murine monoclonal antibody purified from a hybridoma; a mIgG1 isotype control (9G4) is used beside it; also called monoclonal antibody 1003A2 derived from the hybridoma I-4499
# B3: 1024G11 anti-Axl monoclonal antibody (antibody, V domains shown)
# VH: B2 VH with K19N, N30S, Y50F, I64V, L70F, D75A, K87N, Y95F, L107M
# VL: B1 VL with T30I, Y87F, Y92L, R93S, I94T, F96L, S100A, I106L
# notes: Murine monoclonal antibody purified from a hybridoma; a mIgG1 isotype control (9G4) is used beside it; also called monoclonal antibody 1024G11 derived from the hybridoma I-4501
# Biological target: T1, human Axl receptor on human tumor cells
# Assay: cell-based or functional assay
Binder,% remaining Axl [%],Δ (MFI No Ab 24 h - MFI Ab 24 h) [MFI]
B1,29.8,588
B2,35,505
B3,45.5,478

# Biological target: T2, recombinant human Mer-Fc protein (R and …)
# Assay: ELISA on coated protein
# Procedure: (§1) Briefly, the recombinant human Axl-Fc (R and D systems, cat N° 154AL/CF), rhDtk (R and D Systems, cat N° 859-DK) or rh-Mer-Fc (R and D Systems, cat N° 891-MR) proteins were coated overnight at 4° C. to Immulon II 96-well plates and, after a 1 h blocking step with a 0.5% gelatine solution, 110D7, 1003A2, 1024G11 purified antibodies were added, respectively, for an additional 1 h at 37° C. at starting concentration of 5 μg/ml (3.33 10⁻⁸M). Then ½ serial dilutions were done over 12 columns. Then plates were washed and a goat anti-mouse (Jackson) specific IgG-HRP was added for 1 h at 37° C. Reaction development was performed using the TMB substrate solution. The commercial anti-Axl Mab 154 antibody is also used in parallel (data not shown). Coating controls are performed in presence of a goat anti-human IgG Fc polyclonal serum labelled with HRP (Jackson, ref 109-035-098) and/or in presence of a HRP-coupled anti-Histidine antibody (R and D Systems, ref: MAB050H). No non specific binding is observed in absence of primary antibody (diluant). Results for the 110D7 are represented in FIGS. 2A, 2B and 2C, respectively. Results for the 1003A2 are represented in FIGS. 2D, 2E and 2F, respectively. Results for the 1024G11 are represented in FIGS. 2G, 2H and 2I, respectively.
row,Binder,binding result
1,B1,no binding
2,B2,no binding
3,B3,no binding

# Biological target: T3, recombinant human Dtk-Fc protein (R and …)
# Assay: ELISA on coated protein
# Procedure: as §1
row,Binder,binding result
1,B1,no binding
2,B2,no binding
3,B3,no binding
